How the values were obtained:
[1] = target: Sec61β (canine (endogenous in MDCK)) (UniProt P60467); assay: FRET or BRET
[2] = target: Sec61α (canine (endogenous in MDCK)) (UniProt P38377); assay: FRET or BRET
Sequence of Sec61α (canine (endogenous in MDCK)) (P38377 whole entry): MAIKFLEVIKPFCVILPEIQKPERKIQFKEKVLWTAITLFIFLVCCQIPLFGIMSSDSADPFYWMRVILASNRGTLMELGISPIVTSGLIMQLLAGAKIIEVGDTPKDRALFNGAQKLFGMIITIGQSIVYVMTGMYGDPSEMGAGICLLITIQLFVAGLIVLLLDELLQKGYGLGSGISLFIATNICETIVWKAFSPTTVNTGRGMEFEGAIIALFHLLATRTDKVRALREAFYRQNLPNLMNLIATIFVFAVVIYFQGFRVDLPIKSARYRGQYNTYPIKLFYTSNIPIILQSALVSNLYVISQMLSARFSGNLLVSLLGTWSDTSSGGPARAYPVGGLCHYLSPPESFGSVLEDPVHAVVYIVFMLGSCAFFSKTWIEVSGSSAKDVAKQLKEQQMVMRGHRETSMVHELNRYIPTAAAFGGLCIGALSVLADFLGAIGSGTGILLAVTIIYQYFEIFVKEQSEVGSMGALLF

Sequence of Sec61β (canine (endogenous in MDCK)) (P60467 whole entry): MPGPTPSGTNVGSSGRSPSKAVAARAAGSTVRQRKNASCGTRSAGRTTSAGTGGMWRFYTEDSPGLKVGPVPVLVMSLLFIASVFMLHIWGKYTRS
Sequence of Sec61β (P60467 whole entry): as above
Sequence of Sec61α (P38377 whole entry): as the sequence (P38377 whole entry) above

| FRET efficiency (pactamycin-treated cells) [1] | FRET efficiency (puromycin-treated cells) [1] | FRET efficiency (untreated cells) [1] | FRET efficiency (untreated cells, Fig. 3 A, donor to acceptor antibody 1:8) [1] | stoichiometry N [1] | FRET efficiency (pactamycin-treated cells) [2] | FRET efficiency (puromycin-treated cells) [2] | FRET efficiency (untreated cells) [2] | FRET efficiency (untreated cells, Fig. 3 B) [1] | Substance |
| --- | --- | --- | --- | --- | --- | --- | --- | --- | --- |
| 23.9% | 24.8% | 21.4% | 17% | > 2 | 46.8% | 46.1% | 41.8% |  | Sec61β (from UniProt P60467 1-96) (natural protein) |
| 28% | 27.9% | 26.4% |  |  | 35.5% | 33.6% | 38.3% | 30% | Sec61α (from UniProt P38377 1-476) (natural protein) |
